Assay results published in PMC12866822.

Target: pyruvate kinase M2 (PKM2), endogenous in RAW264.7 macrophages (mouse (endogenous in RAW264.7)) (UniProt P52480)
Test: cross-linking; lysates (RIPA buffer) of cells with endogenous PKM2 (RAW264.7, LX2, WRL68) treated with 1 µM DSS on ice for 1 h, SDS-PAGE, blot with PKM2 antibody; cells treated with the four compounds, or LPS with FE (12.5, 25, 50 µM) or DASA-58

pyruvate kinase M2 (PKM2), endogenous in RAW264.7 macrophages, P52480 1-531 (enzyme; other documents disagree on this pair), sequence (P52480 whole entry): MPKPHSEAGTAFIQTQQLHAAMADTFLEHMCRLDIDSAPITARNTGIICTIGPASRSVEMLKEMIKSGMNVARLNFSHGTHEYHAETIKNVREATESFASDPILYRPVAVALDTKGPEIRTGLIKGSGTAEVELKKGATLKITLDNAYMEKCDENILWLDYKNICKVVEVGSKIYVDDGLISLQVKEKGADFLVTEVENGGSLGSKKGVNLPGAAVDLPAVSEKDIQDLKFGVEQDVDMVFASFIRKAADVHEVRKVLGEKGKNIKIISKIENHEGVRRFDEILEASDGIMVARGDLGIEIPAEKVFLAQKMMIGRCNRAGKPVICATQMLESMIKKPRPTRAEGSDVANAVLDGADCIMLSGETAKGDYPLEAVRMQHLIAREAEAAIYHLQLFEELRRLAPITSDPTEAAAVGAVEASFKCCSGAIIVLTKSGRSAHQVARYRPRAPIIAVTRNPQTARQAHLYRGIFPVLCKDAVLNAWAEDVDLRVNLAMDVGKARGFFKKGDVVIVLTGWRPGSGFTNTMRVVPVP

pyruvate kinase M2 (PKM2), endogenous in RAW264.7 macrophages, P52480 1-531 (enzyme; other documents disagree on this pair)
stoichiometry N: 4
